Experimental data reported in publication PMC2952836.

Tests used:
[1] = target: human α-thrombin (human) (UniProt P00734)
[2] = target: human α-thrombin (human) (UniProt P00734); test: kinetics of thrombin inactivation

| Substance | second-order rate constant of uncatalyzed thrombin inactivation (no GAG) [1] | K (TH,HCII), dissociation constant of ternary complex formation with heparin [2] | K (TDS,HCII), dissociation constant of ternary complex formation with DS [2] |
| --- | --- | --- | --- |
| deglycosylated plasma heparin cofactor II (from UniProt P05546 20-499) (natural protein) | 420 M⁻¹ s⁻¹ | 0.018 µM |  |
| native plasma heparin cofactor II (from UniProt P05546 20-499) (natural protein) |  |  | 0.022 µM |
